The values that follow come from article PMC8640741.

This test has as its target SARS-CoV-2 spike (S) protein in the postfusion state, in situ on the viral membrane (SARS-CoV-2). Description: cryo-EM structure.

On to “SARS-CoV-2 spike (S) protein in the postfusion state, in situ on the viral membrane (natural protein)”, for which the stoichiometry N amounted to 3.

As usually defined, the stoichiometry N is the number of molecules, sites or subunits per partner or assembly.
